Molecular target: PDZ1/2 domain (Homo sapiens (Human)) (UniProt P78352)
Assay: SPR, Biacore 3000, PDZ1/2 amine-coupled on CM5 chip, peptide as analyte, 1:1 binding model

PDZ1/2 domain (Homo sapiens (Human)), sequence (P78352 65-246 limits assumed): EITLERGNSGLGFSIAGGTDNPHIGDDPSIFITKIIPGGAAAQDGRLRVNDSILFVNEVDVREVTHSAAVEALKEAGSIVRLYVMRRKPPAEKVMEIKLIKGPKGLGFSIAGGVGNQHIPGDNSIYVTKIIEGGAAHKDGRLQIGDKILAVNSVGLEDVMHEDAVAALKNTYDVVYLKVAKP

control chimeric peptide NA-1
Kd: 75.3 nM
